From patent US20230390371A1, “ANTI-TUMOR IMMUNITY INDUCES THE PRESENTATION OF ABERRANT PEPTIDES” (STICHTING HET NEDERLANDS KANKER INSTITUUT-ANTONI VAN …, priority 2020, published 2023)

Test system: MD55A3 melanoma cells
Experiment: V5-ATF4(1-63)-His frameshift reporter, His-tag pulldown and V5-tag immunoblotting
Type: cell-based, human
Conditions: IFNγ treatment vs control, MD55A3 cells
From the text: FIG. 3: W-Bumps are associated with disordered out-of-frame peptides, and shortage in tryptophan leads to frameshifting events. • (a) Bar-plots depicting total occurrences of alpha-helices, beta-sheets and turns for tryptophan-containing peptide sequences corresponding to W-Bumps (left) and all remaining peptide sequences (middle), and the difference in percentages (right). […] Tryptophan shortage, on the other hand, can lead to stalling on the tryptophan codon (bottom left panel), or could in theory induce frameshifting events, leading to aberrant peptide production (lower right panel). Since secondary structure of growing polypeptide chains is attained in the lower tunnel of the ribosome, the loss of an a-helical secondary structure in this tunnel could hamper ribosomal progression. (c) Line-plots depicting the probability of disorderedness of peptide sequences. The position of the tryptophan is indicated by the dashed line. […] The green line represents the average probability of disorderedness of all peptides (‘All tryptophan codons’, n=36508). A group of outlier candidates that show relatively ordered out-of-frame peptide sequences were selected for comparisons (‘Selected tryptophan codons’, n=94, red). (d) Line-plots depicting mean frequency of RPFs at single nucleotide resolution across all tryptophans (green) and the selected outlier set (red) from panel 3c. […]

B1: IFNγ: interferon gamma (PeproTech), used at 250 U/mL (protein, UniProt P01579 24-161, looked up)
Interferon gamma: QDPYVKEAENLKKYFNAGHSDVADNGTLFLGILKNWKEESDRKIMQSQIVSFYFKLFKNFKDDQSIQKSVETIKEDMNVKFFNSNKKKRDDFEKLTNYSVTDLNVQRKAIHELIQVMAELSPAAKTGKRKRSQMLFRG
  His-tag pulldown of +1 and +2 reporter proteins (frameshifting events): partially pulled down
